These results are taken from patent US20250312468A1, “ANTI-PROTAC ANTIBODIES AND COMPLEXES” (Merck Patent GmbH, priority 2021, published 2025).

In one experiment the test system is MDAMB468 cells. Nature of the experiment: CellTiter-Glo cell viability assay (VHH-based PAX). Particulars: gemtuzumab-based vs cetuximab-based construct, GNE987 (1:1). Here is the method:
(§1) Several cell viability experiments were performed following the procedure described below: Cells were seeded in different media into white cell culture-treated flat and clear bottom multiwell plates followed by overnight incubation in a humid chamber at 37° C. and 5% CO2. Complexation was performed as described in chapter 7.4.
(§2) The solutions were added to the cells based on the antibody concentration using nanodrop dispension using a Tecan D300e Digital Dispenser and all wells were normalized to the same volume using 0.3% TW20 in PBS pH 7.4 and DMSO to a final solvent concentration of 0.05% DMSO and 0.003% TW20. Incubation was performed at 37° C. at 5% or 10% CO2 dependent on the medium. The assay was developed after 3 days if not otherwise stated using CellTiter-Glo Luminescent Cell Viability Assay as described in the manufacturer's protocol. In brief, the plates were equilibrated to room temperature for 30 minutes. 100 mL CellTiter-Glo Buffer were added to the CellTiter-Glo Substrate Flask and mixed well. 30 μL of the reagent was transferred to each well. After incubation for 3 minutes at room temperature while shaking at 550 rpm, the plate was incubated for another 10 minutes at room temperature. The luminescence was read on an Envision reader from Perkin Elmer. Solvent alone and Bortezomib (1.0E-05 M) served as high control (100% viability) and low control (0% viability), respectively. Raw data were converted into percent cell viability relative to the high and low control, which were set to 100% and 0%, respectively. […] The concentration corresponds to the concentration of PROTACs in the PAX.

In another experiment the test system is HEPG2 cells. Nature of the experiment: CellTiter-Glo cell viability assay (VHH-based PAX). Particulars: cetuximab-based construct, GNE987 (1:1). Here is the method:
as §1, §2

B1: MIC7: anti-PROTAC VHH clone, SEQ ID NO: 20 (protein)
VHH: AVQLVESGGGLVQAGGSLRLSCAASGFSFDDYALGWFRQAPGKEPEGLSCISSSDGSTWYADSVKGRFTISSDNAKNTVYLQMNSLKPEDTAVYYCSAIYRLSCSVVRPTIRYALDYWGQGTQVTVSS
modifications: new world camelid
Consider B1, for which the “Selectivity Index IC5O(G)/IC50(C)” value in the experiment with MDAMB468 cells came out at 20.9. In the experiment with HEPG2 cells, the “Selectivity Index IC50 of C on HEPG2/MDAMB468” value is given as 565.3.

B2: MIC5: anti-PROTAC VHH clone, SEQ ID NO: 24 (protein)
VHH: AVQLVDSGGGLVQAGGSLRLSCAASGFTFDDYAIGWFRQAPGKEPEGILCISSSDGSAYVRDSVKGRFTMSSDNAKNTMYLQMNSLRTEDTAVYHCAVATGSCPADGGQKIFLEVWGQGTQVTVSS
modifications: new world camelid
With B2, the “Selectivity Index IC5O(G)/IC50(C)” value in the experiment with MDAMB468 cells stood at 98.1.
